Assay results from patent publication US20210292393A1 (published 2021).

Legend:
[1] = molecular target: SARS-CoV-2 full length spike protein, V367F mutant, expressed on CHO cells (SARS-CoV-2, UniProt P0DTC2 14-1273)
[2] = molecular target: SARS-CoV-2 full length spike protein, D614G mutant, expressed on CHO cells (SARS-CoV-2, UniProt P0DTC2 14-1273)
[3] = molecular target: SARS-CoV-2 full length spike protein, V367F mutant (SARS-CoV-2, UniProt P0DTC2 14-1273)
[4] = molecular target: SARS-CoV-2 full length spike protein, D614G mutant (SARS-CoV-2, UniProt P0DTC2 14-1273)
[5] = molecular target: SARS-CoV-2 full length spike protein, V367F mutant, expressed on the surface of CHO cells (SARS-CoV-2, UniProt P0DTC2 14-1273)
[6] = molecular target: SARS-CoV-2 full length spike protein, D614G mutant, expressed on the surface of CHO cells (SARS-CoV-2, UniProt P0DTC2 14-1273)

Binder	median fluorescence fold over isotype control [3] [fold over isotype]	median fluorescence fold over isotype control [4] [fold over isotype]	also measured
antibody 402 (antibody, V domains shown) VH: QVQLVQSGAEVKKPGASVKVSCKVSGYTLTELSMHWVRQAPGKGLEWMGGFDPEDVETIYAQKFQGRVTMTEDTSTDTAYMELSSLRSEDTAVYYCATGVAVVGTSHSYYYYYGMDVWGQGTTVTVSS VL: DIQMTQSPSSLSASVGDRVTITCRASQGISNYLAWYQQKPGKVPKLLIYAASTLQSGVPSRFSGSGSGTDFTLTISSLQPEDVATYYCQKYNSAPFTFGPGTKVDIK	–	–	median fluorescence fold over isotype control [1]: 46.9 fold over isotype; median fluorescence fold over isotype control [2]: 67.8 fold over isotype
antibody 449 (antibody, V domains shown) VH: not shown VL: QSALTQPASVSGSPGQSITISCTGTSSDVGGYNYVSWYQQHPGKAPKLMIYEVSNRPSGVSNRFSGSKSGNTASLTISGLQAEDEADYYCSSYTSSSTVVFGGGTKLTVL	36.9	68.1	–
antibody 330 (antibody, V domains shown) VH: QVQLVESGGGVVQPGRSLRLSCAASGFTFSSYAMHWVRQAPGKGLEWVAVISYDGSNKYYADSVKGRFTISRDNSKNTLYLQMNSLRAEDTAVYYCARDFQYYDFWSGYLTVSSPTSYYGMDVWGQGTTVTVSS VL: NFMLTQPHSVSESPGKTVTISCTGSSGSIASNYVQWYQQRPGSAPTTVIYEDNQRPSGVPDRFSGSIDSSSNSASLTISGLKTEDEADYYCQSYDSSNVVFGGGTKLTVL	–	–	median fluorescence intensity, fold over isotype control [5]: 22.4 fold over isotype; median fluorescence intensity, fold over isotype control [6]: 56.5 fold over isotype
antibody 430 (antibody, V domains shown) VH: QVHLVEAGGGVVQPGKSLRLSCAASGFIFSNFGMHWVRQSPGKGLEWVAVVSYDASVTKYSDSFEGRFTISRDNSKNTLYLQMDSLRPEDSAVYYCAKGQGANLLHDWGQGILVTVSS VL: DVVLTQSPLSLPVTLGQPASISCRSSESLVYTDGDTYLHWFHQRPGQSPRRLIYKVSNRDSGVPDRFSGSGSGTDFTLRISRVEAEDVGVYYCMQGTHWPFTFGPGTKVDIK	38.3	9.17	–
antibody 448 (antibody, V domains shown) VH: QVQLVQSGAEVKKPGASVKVSCKASGYTFTSYGISWVRQAPGQGLEWMGWISAYNGNTNYAQKLQGRVTMTTDTSTSTAYMELRSLRSDDTAVYYCAIELLEGFYYYYGMDVWGQGTTVTVSS VL: SYELTQPPSVSVSPGQTARITCSGDALPKQYAYWYQQKPGQAPVLVIYKDSERPSGIPERFSGSSSGTTVTLTISGVQAEDEADYYCQSADSSGTYPYVVFGGGTKLTVL	5.79	13.3	–
antibody 311 (antibody, V domains shown) VH: QVQLQESGPGLVKPSETLSLTCTVSGYSISSGYYWGWIRQPPGKGLEWIGSIYHSGSTYYNPSLKSRVTISVDTSKNQFSLKLSSVTAADTAVYYCAREETLGSSWYESYIDYWGQGTLVTVSS VL: SYVLTQPPSVSVAPGKTARITCGGNNIGSKSVHWYQQKPGQAPVLVIYYDSDRPSGIPERFSGSNSGNTATLTISRVEAGDEADYYCQVWDSSSDHPRVFGGGTKLTVL	–	–	median fluorescence intensity, fold over isotype control [5]: 29.6 fold over isotype; median fluorescence intensity, fold over isotype control [6]: 59.7 fold over isotype
antibody 458 (antibody, V domains shown) VH: QVQLVESGGGVVQPGRSLRLSCAASEFTFATYAMHWVRQAPGKGLEWVALISQDGSNKHYADSVKGRFTISRDNSKNTLYLQMNSLRAEGTAIYYCARESLEAAGPPFDYWGQGTLVTVSS VL: SYELTQPPSVSVSPGQTATIICSGDKLGEKYASWYQQKPGQSPALVIYQDRKRPSGIPERFSGSNSGNTATLTISGTQAMDEADYYCQAWDSSNSVVFGGGTKLTVP	27.4	6.23	–
antibody 440 (antibody, V domains shown) VH: EVQLLESGGGLVQPGGSLRLSCAASGFTFSSYAMSWVRQAPGKGLEWVSAISGSGVNTYHADSVKGRFTISRDNSRNTLYLQMSSLTAEDTAAYYCAKDFEAASGAYYYYGMDVWGQGTTVTVSS VL: SYELTQPPSVSVSPGQTARITCSGDALPDQYAYWYQQKPGQAPVVVIYKDRERPSGIPERFSGSNSGTTVTLTISGVQAEDEADYYCQSADSSATYVVFGGGTKLTVL	7.17	15.8	–
antibody 441 (antibody, V domains shown) VH: EVQLVESGGGVVRPGGSLRLSCAASGFTFGDYGMSWVRQAPGKGLEWVSGINWNGGSTGYADSVKGRFTISRDNAKNSLYLQMNSLRAEDTALYYCASDLVRGVIGFDYWGQGTLVTVSS VL: SYELTQPPSVSVSPGQTARITCSGDALPKQYAYWYQQKPGQAPVLVIYKDSERPSGIPERFSGSSSGTTVTLTISGVQAEDEADYYCQSADSSGITGVFGGGTKLTVL	6.24	14.9	–
antibody 312 (antibody, V domains shown) VH: QVQLVQSGAEVKKPGASVKVSCKASGYTFTSYGISWVRQAPGQGLEWMGWISAYNGNTNYAQKLQGRVTMTTDTSTSTAYMELRSLRSDDTAVYYCARMLIAAAGTSRDYYGMDVWGQGTTVTVSS VL: not shown	–	–	median fluorescence intensity, fold over isotype control [5]: 11.3 fold over isotype; median fluorescence intensity, fold over isotype control [6]: 24.5 fold over isotype
antibody 438 (antibody, V domains shown) VH: EVQLVESGGGLVQPGGSLRLSCAASGFTFSSYSMNWVRQAPGKGLEWVSYISSSSSTIYYADSVKGRFTISRDNAKNSLYLQMNSLRAEDTAVYYCARDRGYSDYGPYYYGMDVWGQGTTVTVSS VL: not shown	44	71.2	–
antibody 453 (antibody, V domains shown) VH: QVQLVESGGGVVQPGRSLRLSCAASGFTFSSYAMYWVRQAPGKGLEWVAVISYDGSNKYYADSVKGRFTISRDNSKNTLYLQMNSLRAEDTAVYYCARDRPHYYGSGRKILNLYGMDVWGQGTTVTVSS VL: DIQLTQSPSFLSASVGDRVTITCRASQGISSYLAWYQQKPGKAPKLLIYAASTLQSGVPSSFSGSGSGTEFTLTISSLQPEDFATYYCQQLNSYPPFTFGPGTKVDIK	39.4	7.41	–
antibody 455 (antibody, V domains shown) VH: QVQLVQSGAEVKKPGSSVKVSCKASGGTFSSYAISWVRQAPGQGLEWMGRIIPILGIANYAQKFQGRVTITADKSTSTAYMELSSLRSEDTAVYYCARDSIVVPAAIISGYYYYGMDVWGQGTTVTVSS VL: QSVLTQPPSVSAAPGQKVTISCSGSSSNIGNNYVSWYQQLPGTAPKLLIYDNNKRPSGIPDRFSGSKSGTSATLGITGLQTGDEADYYCGTWDSSLSAGRVFGGGTKLTVL	32.3	8.24	–
antibody 451 (antibody, V domains shown) VH: EVQLVESGGGLVQPGGSLRLSCAASGFTFSTYWMSWVRQAPGKGLEWVANIKQDGSEKYYVDSVKGRFTISRDNAKNSLYLQMNSLRAEDTAVYYCARLGGSSWYFDYWGQGTLVTVSS VL: not shown	29.9	6.29	–
antibody 433 (antibody, V domains shown) VH: QVQLVESGGGVVQPGRSLRLSCAASGFTFSSYAMHWVRQAPGKGLEWVAVISYDGSNKYYADSVKGRFTISRDNSKNTLYLQMNSLRAEDTAVYYCAKDYEVVIAIGGPGAFDYWGQGTLVTVSS VL: SYVLTQPPSVSVAPGKTARITCGGNNIGSKSVHWYQQKPGQAPVLVIYYDSDRPSGIPERFSGSNSGNTATLTISRVEAGDEADYYCQVWDSSSDHVVFGGGTKLTVL	12.3	23.1	–
antibody 461 (antibody, V domains shown) VH: EVQLVESGGGLVKPGGSLRLSCAASGFTFSSYSMNWVRQAPGKGLEWVSSISSSSSYIYYADSVKGRFTISRDNAKNSLYLQMNSLRAEDTAVYYCASNPAAGQEAYYYYGMDVWGQGTTVTVSS VL: not shown	6.89	27.8	–
antibody 410 (antibody, V domains shown) VH: QVQLVQSGAEVKKPGASVKVSCKASGYTFTSYGISWVRQAPGQGLEWMGWISAYNGNTNYAQKLQGRVTMTTDTSTSTAYMELRSLRSDDTAVYYCARGRITIFGVEYYYGMDVWGQGTTVTVSS VL: not shown	–	–	median fluorescence fold over isotype control [1]: 7.64 fold over isotype; median fluorescence fold over isotype control [2]: 17.9 fold over isotype
antibody 318 (antibody, V domains shown) VH: QVQLVESGGGVVPPGRSLSLPCAASGFSFSAYAMHWLRQAPGKGLEWVAVISYDGTVKYVADSVRGRFTISRDNSNNTLYLQMTSLRSDDTAVYYCARDLGALAAAPTVYFVHWGQGTLVTVSS VL: SYVLTQPPSVSVAPGKTATITCAGEDIGRKSVHWYQQKPGQAPVLVIFYYSDRPSGIPDRFSGSVSGNTATLTIGRVEAGDEADYFCQVWDRTTNHVIFGGGTKVTVL	–	–	median fluorescence intensity, fold over isotype control [5]: 40.3 fold over isotype; median fluorescence intensity, fold over isotype control [6]: 9.92 fold over isotype
antibody 404 (antibody, V domains shown) VH: QVQLVESGGGVVQPGRSLRLSCAASGFTFSSYGMHWVRQAPGKGLEWVAVIWYDGSNKYYADSVKGRFTISRDNSKNTLYLQMNSLRAEDTAVYYCARLAVDISFDGSDGMDVWGQGTTVTVSS VL: SYELTQPPSVSVSPGQTARITCSGDALPKKYAYWYQQKSGQAPVLVIYEDSKRPSGIPERFSGSSSGTMATLTISGAQVEDEADYYCYSTDSSGKGVFGTGTKVTVL	–	–	median fluorescence fold over isotype control [1]: 27.4 fold over isotype; median fluorescence fold over isotype control [2]: 6.02 fold over isotype
antibody 314 (antibody, V domains shown) VH: EVQLVESGGGLVKPGGSLRLSCAASGFTLSSYSMNWVRQAPGKGLEWVSCISSSSSYIYYADSVKGRFTISRDNAKNSLYLQMNSLRAEDTAVYYCASDPLDIVVVPAARDYYYYGMDVWGQGTTVTVSS VL: not shown	–	–	median fluorescence intensity, fold over isotype control [5]: 19.6 fold over isotype; median fluorescence intensity, fold over isotype control [6]: 30.4 fold over isotype
